Tests used:
DP1 (DCP 1-15 15肽) = molecular target: T1, DP1 (DCP 1-15 15肽) (human); experiment: peptide competition ELISA on coated 抗原1
T1 peptide: ANTFLEEVRKGNLER

DP2 (DCP 11-25 15肽) = molecular target: T2, DP2 (DCP 11-25 15肽) (human); experiment: peptide competition ELISA on coated 抗原1
T2 peptide: GNLERECVEETCSYE

DP3 (DCP 21-35 15肽) = molecular target: T3, DP3 (DCP 21-35 15肽) (human); experiment: peptide competition ELISA on coated 抗原1
T3 peptide: TCSYEEAFEALESST

DP5 (DCP 41-55 15肽) = molecular target: T4, DP5 (DCP 41-55 15肽) (human); experiment: peptide competition ELISA on coated 抗原1
T4 peptide: WAKYTACETARTPRD

DP42 (DCP 32-39 8肽) [1] = molecular target: T5, DP42 (DCP 32-39 8肽) (human); experiment: 8-mer peptide competition ELISA on coated 抗原1
T5 peptide: ESSTATDV

DP45 (DCP 35-42 8肽) [2] = molecular target: T6, DP45 (DCP 35-42 8肽) (human); experiment: 8-mer peptide competition ELISA on coated 抗原1
T6 peptide: TATDVFWA

DP46 (DCP 36-43 8肽) [3] = molecular target: T7, DP46 (DCP 36-43 8肽) (human); experiment: 8-mer peptide competition ELISA on coated 抗原1
T7 peptide: ATDVFWAK

DP47 (DCP 37-44 8肽) [4] = molecular target: T8, DP47 (DCP 37-44 8肽) (human); experiment: 8-mer peptide competition ELISA on coated 抗原1
T8 peptide: TDVFWAKY

DP48 (DCP 38-45 8肽) [5] = molecular target: T9, DP48 (DCP 38-45 8肽) (human); experiment: 8-mer peptide competition ELISA on coated 抗原1
T9 peptide: DVFWAKYT

DP41 (DCP 31-38 8肽) [6] = molecular target: T10, DP41 (DCP 31-38 8肽) (human); experiment: 8-mer peptide competition ELISA on coated 抗原1
T10 peptide: LESSTATD

[7] = molecular target: T11, 人异常凝血酶原 (Des-γ-carboxyprothrombin) (human, UniProt P00734 44-622, 第6，7，14，16，19，20，25，26，29和32位的Glu残基一个或多个羧化不全 (not fully gamma-carboxylated)); experiment: sandwich ELISA, 11H8-3 capture, 10D9-1-HRP detection, DCP in controls and sera
T11 construct: also called DCP; PIVKA-II

DP42 (DCP 32-39 8肽) [8] = molecular target: T5, DP42 (DCP 32-39 8肽); experiment: competition ELISA: 100ng/ml antibody pre-incubated with 50ug/ml 8-mer peptide, read on coated 抗原1
DP43 (DCP 33-40 8肽) = molecular target: T12, DP43 (DCP 33-40 8肽) (human); experiment: as above
T12 peptide: SSTATDVF

DP44 (DCP 34-41 8肽) = molecular target: T13, DP44 (DCP 34-41 8肽) (human); experiment: as above
T13 peptide: STATDVFW

DP45 (DCP 35-42 8肽) [9] = molecular target: T6, DP45 (DCP 35-42 8肽); experiment: as above
DP46 (DCP 36-43 8肽) [10] = molecular target: T7, DP46 (DCP 36-43 8肽); experiment: as above
DP47 (DCP 37-44 8肽) [11] = molecular target: T8, DP47 (DCP 37-44 8肽); experiment: as above
DP48 (DCP 38-45 8肽) [12] = molecular target: T9, DP48 (DCP 38-45 8肽); experiment: as above
DP41 (DCP 31-38 8肽) [13] = molecular target: T10, DP41 (DCP 31-38 8肽); experiment: as above

B1: 抗人DCP单克隆抗体10D9-1 (antibody, IgG1, V domains shown)
VH: EVQLQQSGPELVKPGASVKMSCKASGYTFTSYVMHWVKQKPGQGLEWIGYIFPYNDVTEYNEKFKGKATLTSDKSSSTAYMELSSLTSEDSAVYYCARWGGRNYWGQGTSVTV
VL: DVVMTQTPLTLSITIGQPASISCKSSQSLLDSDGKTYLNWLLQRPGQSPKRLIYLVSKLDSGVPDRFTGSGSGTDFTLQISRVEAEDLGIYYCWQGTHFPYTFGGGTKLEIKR
notes: also called 抗人异常凝血酶原单克隆抗体; 10D9-1-HRP
- binding result (DP1 (DCP 1-15 15肽)): no binding (tested: 判定标准为:大于90%以上显示有良好的竞争效果; 50ug/ml多肽)
- binding result (DP2 (DCP 11-25 15肽)): no binding (tested: 判定标准为:大于90%以上显示有良好的竞争效果; 50ug/ml多肽)
- binding result (DP3 (DCP 21-35 15肽)): no binding (tested: 判定标准为:大于90%以上显示有良好的竞争效果; 50ug/ml多肽)
- binding result (DP5 (DCP 41-55 15肽)): no binding (tested: 判定标准为:大于90%以上显示有良好的竞争效果; 50ug/ml多肽)
- binding result (DP42 (DCP 32-39 8肽) [1]): no binding (tested: 50ug/ml多肽)
- binding result (DP45 (DCP 35-42 8肽) [2]): no binding (tested: 50ug/ml多肽)
- binding result (DP46 (DCP 36-43 8肽) [3]): no binding (tested: 50ug/ml多肽)
- binding result (DP47 (DCP 37-44 8肽) [4]): no binding (tested: 50ug/ml多肽)
- binding result (DP48 (DCP 38-45 8肽) [5]): no binding (tested: 50ug/ml多肽)
- binding result (DP41 (DCP 31-38 8肽) [6]): no binding (tested: 50ug/ml多肽)
- binding result [7]: binds
- competition rate (对照样品OD值-检测样品OD值)/对照样品OD值 (DP42 (DCP 32-39 8肽) [8]): 10%
- competition rate (对照样品OD值-检测样品OD值)/对照样品OD值 (DP43 (DCP 33-40 8肽)): 33%
- competition rate (对照样品OD值-检测样品OD值)/对照样品OD值 (DP44 (DCP 34-41 8肽)): 29%
- competition rate (对照样品OD值-检测样品OD值)/对照样品OD值 (DP45 (DCP 35-42 8肽) [9]): -9%
- competition rate (对照样品OD值-检测样品OD值)/对照样品OD值 (DP46 (DCP 36-43 8肽) [10]): 4%
- competition rate (对照样品OD值-检测样品OD值)/对照样品OD值 (DP47 (DCP 37-44 8肽) [11]): 11%
- competition rate (对照样品OD值-检测样品OD值)/对照样品OD值 (DP48 (DCP 38-45 8肽) [12]): 10%
- competition rate (对照样品OD值-检测样品OD值)/对照样品OD值 (DP41 (DCP 31-38 8肽) [13]): -2%
